Experimental data: patent publication US20250043302A1, “MUTATED HYDROXYPHENYLPYRUVATE DIOXYGENASE POLYPEPTIDE, AND CODING GENE AND USE THEREOF” (BEIJING DABEINONG BIOTECHNOLOGY CO., LTD., priority 2021, published 2025)

Columns and labels:
Format in all cases: in vivo
[1] = system: Arabidopsis thaliana T1 plants; assay: Isoxaflutole tolerance of transgenic Arabidopsis thaliana T1 plants (spray, bleached leaf area grade, damage score); set-up: Scores (pesticide damage): scale not given here; conditions: spray, Arabidopsis thaliana T1 plants; for Classification and statistics of the grade of pesticide damage: Grade 0 (number of plants) / Classification and statistics of the grade of pesticide damage: Grade 1 (number of plants) / Classification and statistics of the grade of pesticide damage: Grade 2 (number of plants) / Classification and statistics of the grade of pesticide damage: Grade 3 (number of plants): 16 plants
Outline: (§1)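 T1 transformants selected by glufosinate; 18-day-old plants, with empty-vector and wild-type controls, sprayed with topramezone (25–200 g ai/ha), isoxaflutole (35–280 g ai/ha) or mesotrione (52.5–420 g ai/ha), water as 0×. Bleached leaf area fraction scored at 7 DAT as grades 0–3.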

[2] = system: Arabidopsis thaliana T1 plants; assay: Topramezone tolerance of transgenic Arabidopsis thaliana T1 plants (spray, bleached leaf area grade, damage score); conditions: 7 DAT, Table 4; for Classification and statistics of the grade of pesticide damage: Grade 0 / Classification and statistics of the grade of pesticide damage: Grade 1 / Classification and statistics of the grade of pesticide damage: Grade 2 / Classification and statistics of the grade of pesticide damage: Grade 3: number of plants; for Scores: pesticide damage score 0-100
Outline: as §1

[3] = system: soybean T1 plants; assay: Topramezone tolerance of transgenic soybean T1 plants; conditions: different concentrations
Method: T1 transformants were initially selected from the untransformed seeds using a glufosinate selection scheme. […] The degree of damage caused by the herbicide was measured for each plant according to the proportion of bleached leaf area (the proportion of bleached leaf area=bleached leaf area/total leaf area×100%) 7 days after spraying (7 DAT): the case where there is basically no bleached phenotype is defined as grade 0, the case where the proportion of bleached leaf area is less than 50% is defined as grade 1, the case where the proportion of bleached leaf area is more than 50% is defined as grade 2, and the case where the proportion of bleached leaf area is 100% grade is defined as grade 3.
The soybean T1 plants into which the SbHPPD-02 nucleotide sequence was introduced, soybean T1 plants into which the SbHPPDm-F372A-02 nucleotide sequence was introduced, soybean T1 plants into which the SbHPPDm-F383W-02 nucleotide sequence was introduced, soybean T1 plants into which the SbHPPDm-F372A-F383W-02 nucleotide sequence was introduced, soybean T1 plants into which the control vector DBN11726N nucleotide sequence was introduced, and wild-type soybean plants (V3-V4 at seedling stage) were sprayed with topramezone at three different concentrations (i.e., 25 g ai/ha (one-fold field concentration, 1×). […] According to the method in point 6 of Example 1, after 7 days of spraying (7 DAT), the damage degree of each plant by the herbicide was statistically analyzed, and the scoring and resistance evaluation were carried out accordingly. […]

[4] = system: Arabidopsis thaliana T1 plants; assay: Mesotrione tolerance of transgenic Arabidopsis thaliana T1 plants (spray, bleached leaf area grade, damage score); set-up: Scores: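 damage score 0-100 computed as Σ(N×S)/(T×M)×100 over grades 0-3 with higher meaning more damage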; conditions: Arabidopsis thaliana T1 plants; for Grade 0 (classification and statistics of the grade of pesticide damage; number of plants) / Grade 1 (classification and statistics of the grade of pesticide damage; number of plants) / Grade 2 (classification and statistics of the grade of pesticide damage; number of plants) / Grade 3 (classification and statistics of the grade of pesticide damage; number of plants): 16 plants
Outline: as §1

[5] = system: soybean T1 plants; assay: Mesotrione tolerance of transgenic soybean T1 plants; conditions: different concentrations
[6] = system: soybean T1 plants; assay: Isoxaflutole tolerance of transgenic soybean T1 plants; conditions: different concentrations
[7] = isoxaflutole 35 g ai/ha (0.5x field concentration)
[8] = isoxaflutole 70 g ai/ha (1x field concentration)

B1: SbHPPDm-F372A-F383W-02: nucleotide sequence encoding Sorghum bicolor HPPD with F372A+F383W; vector DBN11761 (nucleic acid)
DNA: ATGCCGCCCACTCCAACAACTGCTGCTGCGACGGGAGCAGCTGTCGCCGCTGCTTCTGCTGAGCAGGCTGCCTTCAGGCTCGTCGGGCACAGAAATTTTGTTCGTGTAAATCCAAGGAGTGATAGGTTCCACACCTTGGCTTTTCACCACGTGGAGTTGTGGTGTGCTGATGCAGCCTCGGCAGCGGGGCGCTTCTCGTTTGGTCTCGGTGCTCCGCTCGCCGCAAGATCTGATCTTAGCACTGGAAACACAGCGCATGCCTCCCTGCTCCTGCGCTCTGGCGCGCTGGCGTTCCTCTTCACGGCGCCATATGCTCACGGCGCCGACGCCGCCACCGCGTCATTGCCGTCTTTTAGTGCAGCCGAAGCAAGAAGATTTGCAGCAGACCACGGCCTCGCCGTAAGGGCCGTGGCCTTACGTGTCGCCGATGCCGAAGATGCTTTCCGCGCCTCTGTAGCAGCTGGAGCAAGGCCAGCATTTGAACCTGTTGAATTGGGGTTAGGATTCCGTCTTGCAGAAGTTGAGCTTTATGGCGACGTTGTTTTGAGATACGTTTCATATCCTGATGACGCTGACGCTAGCTTCTTGCCTGGTTTTGTGGGGGTGACATCACCTGGGGCAGCAGATTATGGTCTCAGGCGGTTTGATCATATTGTTGGAAACGTTCCTGAACTCGCGCCGGCGGCAGCCTACTTCGCCGGTTTCACTGGGTTTCATGAATTTGCTGAATTCACAGCCGAGGATGTCGGCACCACCGAGAGTGGACTGAACTCCATGGTGCTGGCCAACAATGCAGAGAATGTCCTTCTTCCCTTGAATGAACCAGTTCATGGAACAAAAAGGCGTTCCCAAATACAAACATACCTCGACCATCATGGTGGACCAGGCGTTCAGCATATGGCTCTCGCTAGTGACGATGTTCTACGAACCCTGCGAGAGATGCAGGCGCGGTCTGCAATGGGAGGATTTGAGTTCATGGCACCTCCTGCCCCTGAATATTATGATGGTGTTCGGAGAAGGGCAGGTGATGTGCTAACTGAAGCTCAAATCAAGGAGTGCCAGGAGCTTGGCGTGCTGGTCGATCGGGATGATCAAGGTGTGCTTCTGCAGATTGCCACTAAACCAGTGGGTGACCGCCCCACGCTGTGGCTAGAGATCATCCAGAGAATAGGGTGCATGGAGAAGGACGAAAAAGGACAAGAGTACCAGAAGGGAGGTTGTGGCGGCTTTGGAAAAGGGAACTTCTCCCAATTATTCAAGTCAATTGAAGACTATGAAAAGAGTTTGGAGGCTAAGCAAGCTGCAGCCGCCCAGGGCAGCTGA
modifications: SbHPPDm-F372A-F383W-02 Nucleotide Sequence
notes: vector DBN11761
- Resistance evaluation [1, 7]: Highly
- Scores (pesticide damage) [1, 7]: 8
- Classification and statistics of the grade of pesticide damage: Grade 0 (number of plants) [1, 7]: 12
- Classification and statistics of the grade of pesticide damage: Grade 1 (number of plants) [1, 7]: 4
- Classification and statistics of the grade of pesticide damage: Grade 2 (number of plants) [1, 7]: 0
- Classification and statistics of the grade of pesticide damage: Grade 3 (number of plants) [1, 7]: 0
- Resistance evaluation [1, 8]: Highly
- Scores (pesticide damage) [1, 8]: 13
- Classification and statistics of the grade of pesticide damage: Grade 0 (number of plants) [1, 8]: 10
- Classification and statistics of the grade of pesticide damage: Grade 1 (number of plants) [1, 8]: 6
- Classification and statistics of the grade of pesticide damage: Grade 2 (number of plants) [1, 8]: 0
- Classification and statistics of the grade of pesticide damage: Grade 3 (number of plants) [1, 8]: 0
- Classification and statistics of the grade of pesticide damage: Grade 0 ([2]; topramezone 25 g ai/ha (1×)): 16
- Classification and statistics of the grade of pesticide damage: Grade 1 ([2]; topramezone 25 g ai/ha (1×)): 0
- Classification and statistics of the grade of pesticide damage: Grade 2 ([2]; topramezone 25 g ai/ha (1×)): 0
- Classification and statistics of the grade of pesticide damage: Grade 3 ([2]; topramezone 25 g ai/ha (1×)): 0
- Classification and statistics of the grade of pesticide damage: Grade 0 ([2]; topramezone 100 g ai/ha (4×)): 9
- Classification and statistics of the grade of pesticide damage: Grade 1 ([2]; topramezone 100 g ai/ha (4×)): 7
- Classification and statistics of the grade of pesticide damage: Grade 2 ([2]; topramezone 100 g ai/ha (4×)): 0
- Classification and statistics of the grade of pesticide damage: Grade 3 ([2]; topramezone 100 g ai/ha (4×)): 0
- Scores ([2]; topramezone 25 g ai/ha (1×)): 0
- Scores ([2]; topramezone 100 g ai/ha (4×)): 15
- Resistance evaluation ([2]; topramezone 25 g ai/ha (1×)): highly
- Resistance evaluation ([2]; topramezone 100 g ai/ha (4×)): highly
- tolerance to HPPD-inhibitor herbicides (in words): topramezone [3]: different degrees of tolerance
- Resistance evaluation ([4]; mesotrione 52.5 g ai/ha): Highly resistant
- Scores ([4]; mesotrione 52.5 g ai/ha): 13
- Grade 0 (classification and statistics of the grade of pesticide damage; number of plants) ([4]; mesotrione 52.5 g ai/ha): 10
- Grade 1 (classification and statistics of the grade of pesticide damage; number of plants) ([4]; mesotrione 52.5 g ai/ha): 6
- Grade 2 (classification and statistics of the grade of pesticide damage; number of plants) ([4]; mesotrione 52.5 g ai/ha): 0
- Grade 3 (classification and statistics of the grade of pesticide damage; number of plants) ([4]; mesotrione 52.5 g ai/ha): 0
- Resistance evaluation ([4]; mesotrione 105 g ai/ha): Poorly resistant
- Scores ([4]; mesotrione 105 g ai/ha): 38
- Grade 0 (classification and statistics of the grade of pesticide damage; number of plants) ([4]; mesotrione 105 g ai/ha): 0
- Grade 1 (classification and statistics of the grade of pesticide damage; number of plants) ([4]; mesotrione 105 g ai/ha): 14
- Grade 2 (classification and statistics of the grade of pesticide damage; number of plants) ([4]; mesotrione 105 g ai/ha): 2
- Grade 3 (classification and statistics of the grade of pesticide damage; number of plants) ([4]; mesotrione 105 g ai/ha): 0
- tolerance to HPPD-inhibitor herbicides (in words): mesotrione [5]: different degrees of tolerance
- tolerance to HPPD-inhibitor herbicides (in words): isoxaflutole [6]: different degrees of tolerance
